A word on the Kd: it is the equilibrium constant for the complex coming apart.

Assay [1] has as its target NKTT120 (human (humanized antibody)). Kind of assay: SPR; Biacore 3000; NKTT120 immobilised on the chip; FcγRI, FcγRIIIa or C1q as analyte at six different concentrations; BiaEvaluation software. For orientation: SPR reads the build-up and loss of mass on a sensor chip optically.
For assay [2] the target is unchanged.

Chain of NKTT120 (human (humanized antibody)) (heavy, as listed by the source, chain 1 of 2): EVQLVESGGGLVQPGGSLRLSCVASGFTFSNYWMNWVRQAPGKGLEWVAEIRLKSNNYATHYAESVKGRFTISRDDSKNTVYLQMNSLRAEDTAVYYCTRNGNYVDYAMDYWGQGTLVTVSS
Chain of NKTT120 (human (humanized antibody)) (light, as listed by the source, chain 2 of 2): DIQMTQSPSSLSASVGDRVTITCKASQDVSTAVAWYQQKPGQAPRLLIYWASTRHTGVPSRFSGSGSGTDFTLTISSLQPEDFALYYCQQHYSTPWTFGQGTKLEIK
Chain of FcγRIIIa (P08637 17-254): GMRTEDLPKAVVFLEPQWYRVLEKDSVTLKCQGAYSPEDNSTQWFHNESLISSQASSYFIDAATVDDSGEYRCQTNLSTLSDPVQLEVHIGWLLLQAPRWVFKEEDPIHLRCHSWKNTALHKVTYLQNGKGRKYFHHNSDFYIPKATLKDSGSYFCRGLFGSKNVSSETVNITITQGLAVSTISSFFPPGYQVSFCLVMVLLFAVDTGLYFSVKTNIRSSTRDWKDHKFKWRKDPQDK
Chain of FcγRI (P12314 16-374): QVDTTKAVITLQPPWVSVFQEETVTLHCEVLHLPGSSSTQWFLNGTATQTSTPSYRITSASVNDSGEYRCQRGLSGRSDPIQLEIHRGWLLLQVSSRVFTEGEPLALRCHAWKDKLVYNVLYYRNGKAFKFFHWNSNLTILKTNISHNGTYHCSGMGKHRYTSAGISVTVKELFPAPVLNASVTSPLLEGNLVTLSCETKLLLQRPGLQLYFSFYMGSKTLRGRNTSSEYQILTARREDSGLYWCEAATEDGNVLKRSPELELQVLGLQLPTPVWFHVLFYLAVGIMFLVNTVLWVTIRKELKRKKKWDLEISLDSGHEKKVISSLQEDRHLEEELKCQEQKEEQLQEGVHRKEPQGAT

In turn, “FcγRIIIa (from UniProt P08637 17-254) (receptor)” displayed a Kd in assay [1] of 122 nM. Further, the ADCC, cell killing of iTCR-expressing target cells by CD16-transduced NK-92 effector cells (E:T 60:1), NKTT120 at 1 and 20 µg/ml (34% to 44%) in assay [2] came to 44%.

Take “FcγRI (from UniProt P12314 16-374) (receptor)”: the Kd in assay [1] stood at 12 nM.
